# Source: IntAct's records for PubMed 24217340
# B1: Suppressor of fused homolog (Homo sapiens), Q9UMX1 (parent)
# chain: MAELRPSGAPGPTAPPAPGPTAPPAFASLFPPGLHAIYGECRRLYPDQPNPLQVTAIVKYWLGGPDPLDYVSMYRNVGSPSANIPEHWHYISFGLSDLYGDNRVHEFTGTDGPSGFGFELTFRLKRETGESAPPTWPAELMQGLARYVFQSENTFCSGDHVSWHSPLDNSESRIQHMLLTEDPQMQPVQTPFGVVTFLQIVGVCTEELHSAQQWNGQGILELLRTVPIAGGPWLITDMRRGETIFEIDPHLQERVDKGIETDGSNLSGVSAKCAWDDLSRPPEDDEDSRSICIGTQPRRLSGKDTEQIRETLRRGLEINSKPVLPPINPQRQNGLAHDRAPSRKDSLESDSSTAIIPHELIRTRQLESVHLKFNQESGALIPLCLRGRLLHGRHFTYKSITGDMAITFVSTGVEGAFATEEHPYAAHGPWLQILLTEEFVEKMLEDLEDLTSPEEFKLPKEYSWPEKKLKVSILPDVVFDSPLH
# Variants of: B1
# Conditions: with gli1_human GLI1, P08151
row,Variant,effect of a mutation on the interaction
1,MAELRPSGAPGPTAPPAPGPTAPPAFASLFPPGLHAIYGECRRLYPDQPNPLQVTAIVKYWLGGPDPLDYVSMYRNVGSPSANIPEHWHYISFGLSDLYGDNRVHEFTGTDGPSGFGFELTFRLKRETGESAPPTWPAELMQGLARRVFQSENTACSGAHVSWHSPLDNSESRIQHMLLTEDPQMQPVQTPFGVVTFLQIVGVCTEELHSAQQWNGQGILELLRTVPIAGGPWLITDMRRGETIFEIDPHLQERVDKGIETDGSNLSGVSAKCAWDDLSRPPEDDEDSRSICIGTQPRRLSGKDTEQIRETLRRGLEINSKPVLPPINPQRQNGLAHDRAPSRKDSLESDSSTAIIPHELIRTRQLESVHLKFNQESGARIPLCLRGRLLHGRHFTYKSITGDMAITFVSTGVEGAFATEEHPYAAHGPWLQILLTEEFVEKMLEDLEDLTSPEEFKLPKEYSWPEKKLKVSILPDVVFDSPLH [Y147R;F155A;D159A;L380R],disrupting interaction
2,MAELRPSGAPGPTAPPAPGPTAPPAFASLFPPGLHAIYGECRRLYPDQPNPLQVTAIVKYWLGGPDPLDYVSMYRNVGSPSANIPEHWHYISFGLSDLYGDNRVHEFTGTDGPSGFGFELTFRLKRETGESAPPTWPAELMQGLARRVFQSENTACSGRHVSWHSPLDNSESRIQHMLLTEDPQMQPVQTPFGVVTFLQIVGVCTEELHSAQQWNGQGILELLRTVPIAGGPWLITDMRRGETIFEIDPHLQERVDKGIETDGSNLSGVSAKCAWDDLSRPPEDDEDSRSICIGTQPRRLSGKDTEQIRETLRRGLEINSKPVLPPINPQRQNGLAHDRAPSRKDSLESDSSTAIIPHELIRTRQLESVHLKFNQESGARIPLCLRGRLLHGRHFTYKSITGDMAITFVSTGVEGAFATEEHPYAAHGPWLQILLTEEFVEKMLEDLEDLTSPEEFKLPKEYSWPEKKLKVSILPDVVFDSPLH [Y147R;F155A;D159R;L380R],disrupting interaction
3,MAELRPSGAPGPTAPPAPGPTAPPAFASLFPPGLHAIYGECRRLYPDQPNPLQVTAIVKYWLGGPDPLDYVSMYRNVGSPSANIPEHWHYISFGLSDLYGDNRVHEFTGTDGPSGFGFELTFRLKRETGESAPPTWPAELMQGLARRVFQSENTACSGDHVSWHSPLDNSESRIQHMLLTEDPQMQPVQTPFGVVTFLQIVGVCTEELHSAQQWNGQGILELLRTVPIAGGPWLITDMRRGETIFEIDPHLQERVDKGIETDGSNLSGVSAKCAWDDLSRPPEDDEDSRSICIGTQPRRLSGKDTEQIRETLRRGLEINSKPVLPPINPQRQNGLAHDRAPSRKDSLESDSSTAIIPHELIRTRQLESVHLKFNQESGALIPLCLRGRLLHGRHFTYKSITGDMAITFVSTGVEGAFATEEHPYAAHGPWLQILLTEEFVEKMLEDLEDLTSPEEFKLPKEYSWPEKKLKVSILPDVVFDSPLH [Y147R;F155A],decreasing interaction
4,MAELRPSGAPGPTAPPAPGPTAPPAFASLFPPGLHAIYGECRRLYPDQPNPLQVTAIVKYWLGGPDPLDYVSMYRNVGSPSANIPEHWHYISFGLSDLYGDNRVHEFTGTDGPSGFGFELTFRLKRETGESAPPTWPAELMQGLARRVFQSENTFCSGRHVSWHSPLDNSESRIQHMLLTEDPQMQPVQTPFGVVTFLQIVGVCTEELHSAQQWNGQGILELLRTVPIAGGPWLITDMRRGETIFEIDPHLQERVDKGIETDGSNLSGVSAKCAWDDLSRPPEDDEDSRSICIGTQPRRLSGKDTEQIRETLRRGLEINSKPVLPPINPQRQNGLAHDRAPSRKDSLESDSSTAIIPHELIRTRQLESVHLKFNQESGALIPLCLRGRLLHGRHFTYKSITGDMAITFVSTGVEGAFATEEHPYAAHGPWLQILLTEEFVEKMLEDLEDLTSPEEFKLPKEYSWPEKKLKVSILPDVVFDSPLH [Y147R;D159R],disrupting interaction

# Variants of: B1
# Conditions: with gli1_human GLI1, P08151
# Remark: another data set of the same source
row,Variant,effect of a mutation on the interaction
1,MAELRPSGAPGPTAPPAPGPTAPPAFASLFPPGLHAIYGECRRLYPDQPNPLQVTAIVKYWLGGPDPLDYVSMYRNVGSPSANIPEHWHYISFGLSDLYGDNRVHEFTGTDGPSGFGFELTFRLKRETGESAPPTWPAELMQGLARRVFQSENTACSGDHVSWHSPLDNSESRIQHMLLTEDPQMQPVQTPFGVVTFLQIVGVCTEELHSAQQWNGQGILELLRTVPIAGGPWLITDMRRGETIFEIDPHLQERVDKGIETDGSNLSGVSAKCAWDDLSRPPEDDEDSRSICIGTQPRRLSGKDTEQIRETLRRGLEINSKPVLPPINPQRQNGLAHDRAPSRKDSLESDSSTAIIPHELIRTRQLESVHLKFNQESGALIPLCLRGRLLHGRHFTYKSITGDMAITFVSTGVEGAFATEEHPYAAHGPWLQILLTEEFVEKMLEDLEDLTSPEEFKLPKEYSWPEKKLKVSILPDVVFDSPLH [Y147R;F155A],disrupting interaction

# Variants of: B1
# Conditions: with gli2_mouse Gli2, Q0VGT2
row,Variant,effect of a mutation on the interaction
1,MAELRPSGAPGPTAPPAPGPTAPPAFASLFPPGLHAIYGECRRLYPDQPNPLQVTAIVKYWLGGPDPLDYVSMYRNVGSPSANIPEHWHYISFGLSDLYGDNRVHEFTGTDGPSGFGFELTFRLKRETGESAPPTWPAELMQGLARYVFQSENTFCSGDHVSWHSPLDNSESRIQHMLLTEDPQMQPVQTPFGVVTFLQIVGVCTEELHSAQQWNGQGILELLRTVPIAGGPWLITDMRRGETIFEIDPHLQERVDKGIETDGSNLSGVSAKCAWDDLSRPPEDDEDSRSICIGTQPRRLSGKDTEQIRETLRRGLEINSKPVLPPINPQRQNGLAHDRAPSRKDSLESDSSTAIIPHELIRTRQLESVHLKFNQESGARIPLCLRGRLLHGRHFTYKSITGDMAITFVSTGVEGAFATEEHPYAAHGPWLQILLTEEFVEKMLEDLEDLTSPEEFKLPKEYSWPEKKLKVSILPDVVFDSPLH [L380R],decreasing interaction

# Variants of: B1
# Conditions: with gli2_mouse Gli2, Q0VGT2
# Remark: another data set of the same source
row,Variant,effect of a mutation on the interaction
1,MAELRPSGAPGPTAPPAPGPTAPPAFASLFPPGLHAIYGECRRLYPDQPNPLQVTAIVKYWLGGPDPLDYVSMYRNVGSPSANIPEHWHYISFGLSDLYGDNRVHEFTGTDGPSGFGFELTFRLKRETGESAPPTWPAELMQGLARYVFQSENTFCSGDHVSWHSPLDNSESRIQHMLLTEDPQMQPVQTPFGVVTFLQIVGVCTEELHSAQQWNGQGILELLRTVPIAGGPWLITDMRRGETIFEIDPHLQERVDKGIETDGSNLSGVSAKCAWDDLSRPPEDDEDSRSICIGTQPRRLSGKDTEQIRETLRRGLEINSKPVLPPINPQRQNGLAHDRAPSRKDSLESDSSTAIIPHELIRTRQLESVHLKFNQESGARIPLCLRGRLLHGRHFTYKSITGDMAITFVSTGVEGAFATEEHPYAAHGPWLQILLTEEFVEKMLEDLEDLTSPEEFKLPKEYSWPEKKLKVSILPDVVFDSPLH [L380R],disrupting interaction
